Patent US20250297032A1 (CONCEPT TO MEDICINE BIOTECH, published 2025)

Tests used:
[1] = biological target: T1, human FAPα-His tag (Sino biological) (human, UniProt Q12884 26-760); assay: competitive ELISA on coated human FAPα; competitor (detected): FAP-G14-Bio
T1 construct: Bought protein; also called human FAPα-His protein; not shown: His tag
T1 sequence (looked up): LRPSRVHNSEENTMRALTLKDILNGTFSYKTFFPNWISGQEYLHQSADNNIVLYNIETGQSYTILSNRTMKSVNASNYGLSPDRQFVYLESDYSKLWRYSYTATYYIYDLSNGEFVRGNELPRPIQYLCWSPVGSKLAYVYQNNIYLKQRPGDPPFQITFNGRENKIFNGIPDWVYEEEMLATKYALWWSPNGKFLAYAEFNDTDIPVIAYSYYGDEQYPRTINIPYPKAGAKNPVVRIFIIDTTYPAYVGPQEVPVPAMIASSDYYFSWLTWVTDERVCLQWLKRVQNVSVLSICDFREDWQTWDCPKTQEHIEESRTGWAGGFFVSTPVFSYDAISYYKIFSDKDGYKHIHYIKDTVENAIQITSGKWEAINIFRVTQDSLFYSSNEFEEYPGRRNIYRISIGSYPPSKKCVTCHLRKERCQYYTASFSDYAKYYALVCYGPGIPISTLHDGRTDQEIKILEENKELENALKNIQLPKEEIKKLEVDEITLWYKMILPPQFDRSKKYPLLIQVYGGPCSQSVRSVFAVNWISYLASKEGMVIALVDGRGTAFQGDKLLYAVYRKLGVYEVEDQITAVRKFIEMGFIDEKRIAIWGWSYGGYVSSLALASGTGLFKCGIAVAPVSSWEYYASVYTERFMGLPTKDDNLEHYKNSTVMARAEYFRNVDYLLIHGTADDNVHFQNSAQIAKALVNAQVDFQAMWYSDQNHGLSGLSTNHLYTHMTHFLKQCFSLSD
Protocol: (§1) Competitive ELISA was carried out to classify the FAPα mAbs based on the binding epitope to human FAPα.
(§2) Briefly, microtiter plates were coated with human FAPα proteins at 0.5 μg/ml in PBS, 100 μl/well at 4° C. overnight, then blocked with 150 μl/well of 1% BSA. Serial dilutions of chimeric antibodies as well as biotin-conjugated reference mAb were added to each well and incubated for 1 hour at RT. The plates were washed with PBS/Tween and then incubate with streptavidin-HRP for 15 mins at RT. After washing, the plates were developed with TMB substrate and analyzed by spectrophotometer at OD 450 nm. According to the competition ability to reference mAbs (Benchmark, or “BMK”), all tested FAPα mAbs binds to the similar epitope as shown in Table 5.

[2] = biological target: T1, human FAPα-His tag (Sino biological); assay: competitive ELISA on coated human FAPα; competitor (detected): FAP-I37-Bio
Protocol: as §1, §2

[3] = biological target: T1, human FAPα-His tag (Sino biological); assay: competitive ELISA on coated human FAPα; competitor (detected): FAP-I38-Bio
Protocol: as §2

[4] = biological target: T1, human FAPα-His tag (Sino biological); assay: SPR (Biacore T200), mAb captured on Protein A chip, human FAPα-His as analyte
Protocol: The binding of the tested antibodies to recombinant FAPα protein (human FAPα-his tag) was tested with Biacore using a capture method. The mAbs were captured using Protein A chip. A serial dilution of human FAPα-his tag protein was injected over captured antibody for 3 mins at a flow rate of 30 μl/min. The antigen was allowed to dissociate for 800s. All the experiments were carried out on a Biacore T200. Data analysis was carried out using the Biacore T200 evaluation software.

mouse FAPα-His protein [5] = biological target: T2, mouse FAPα-His protein (mouse, UniProt P97321 26-761, limits assumed); assay: ELISA, plate coated with mouse FAPα-His, anti-human IgG-HRP, OD 450 nm
T2 construct: not shown: His tag
T2 sequence (looked up): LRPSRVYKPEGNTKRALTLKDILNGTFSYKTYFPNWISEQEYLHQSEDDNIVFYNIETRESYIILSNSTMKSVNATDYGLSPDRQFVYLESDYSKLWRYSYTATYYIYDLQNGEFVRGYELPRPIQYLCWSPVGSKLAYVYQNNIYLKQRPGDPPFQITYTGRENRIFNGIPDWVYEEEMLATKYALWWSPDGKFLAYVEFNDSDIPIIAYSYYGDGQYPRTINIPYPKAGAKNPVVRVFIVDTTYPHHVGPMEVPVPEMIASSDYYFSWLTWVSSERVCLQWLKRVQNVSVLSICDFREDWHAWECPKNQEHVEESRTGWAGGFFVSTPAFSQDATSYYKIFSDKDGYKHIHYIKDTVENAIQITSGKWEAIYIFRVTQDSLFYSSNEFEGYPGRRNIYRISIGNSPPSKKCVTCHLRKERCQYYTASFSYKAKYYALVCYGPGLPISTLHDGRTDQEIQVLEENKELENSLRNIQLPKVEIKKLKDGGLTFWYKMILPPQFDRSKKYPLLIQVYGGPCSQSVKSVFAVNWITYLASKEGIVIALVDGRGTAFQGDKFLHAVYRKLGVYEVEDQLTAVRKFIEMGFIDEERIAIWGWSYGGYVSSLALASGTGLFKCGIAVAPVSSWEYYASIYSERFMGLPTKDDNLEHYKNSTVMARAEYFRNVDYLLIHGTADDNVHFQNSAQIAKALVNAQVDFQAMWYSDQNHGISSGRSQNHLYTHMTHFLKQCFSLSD
Protocol: (§3) Briefly, microtiter plates were coated with mouse FAPα-His protein at 0.5 ug/ml in PBS, 100 μl/well at 4° C. overnight, then blocked with 150 μl/well of 1% BSA. Three-fold dilutions of tested antibodies starting from 1 μg/ml were added to each well and incubated for 1 hour at 37° C. The plates were washed with PBS/Tween and then incubated with Anti-Human IgG (H&L) (GOAT) Antibody Peroxidase Conjugated for 30 mins at 37° C. After washing, the plates were developed with TMB substrate and analyzed by spectrophotometer at OD 450 nm.

mouse FAPα-His protein [6] = biological target: T2, mouse FAPα-His protein; assay: ELISA, coated mouse FAPα-His
Protocol: as §3

B1: G14 (antibody, V domains shown)
VH: QVQLLESGGGVVQPGRSLRLSCAASGFTFSSYAMHWVRQAPGKGLEWVAFISHDGNRNSYADSVRGRFTISRDNSKNTLYLQMNSLRAEDTAVYYCARDLGYYNGFSYWGQGTLVTVSA
VL: DIVMTQSPSSVSASVGDRVTITCRASQGISSWLAWYQQKPGKAPKLLIYAASSLQSGVPSRFSGSGSGTDFTLTISSLQPEDFATYYCQQANSFPPTFGPGTKVDIK
notes: Full human antibody from a Fab phage library; Tested as a mAb (detected with anti-human IgG, captured on Protein A); also called FAP-G14; FAP-G14-Bio (biotin-conjugated form)
OD 450 nm [1]: 0.209 OD 450 nm | OD 450 nm [2]: 0.457 OD 450 nm | OD 450 nm [3]: 0.658 OD 450 nm | Kd [4]: 0.522 nM | koff [4]: 6.24e-05 s⁻¹ | kon [4]: 120000 M⁻¹ s⁻¹ | binding result (mouse FAPα-His protein [5]): no binding (tested: 1000 ng/ml)

B2: I30 (antibody, V domains shown)
VH: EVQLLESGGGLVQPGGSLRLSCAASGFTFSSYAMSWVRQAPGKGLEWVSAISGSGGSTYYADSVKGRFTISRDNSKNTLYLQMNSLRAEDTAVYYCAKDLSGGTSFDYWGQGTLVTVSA
VL: AIRLTQSPSSVSASVGDRVTITCRASQGISSWLAWYQQKPGKAPKLLIYAASSLQSGVPSRFSGSGSGTDFTLTISSLQPEDFATYYCQQANSFPPTFGGGTKVEIK
notes: Tested as a mAb; also called 130; FAP-I30
OD 450 nm [1]: 0.129 OD 450 nm | OD 450 nm [2]: 0.219 OD 450 nm | OD 450 nm [3]: 0.324 OD 450 nm | Kd [4]: 0.454 nM | koff [4]: 6.2e-05 s⁻¹ | kon [4]: 137000 M⁻¹ s⁻¹ | binding result (mouse FAPα-His protein [5]): no binding (tested: 1000 ng/ml)

B3: J40 (antibody, V domains shown)
VH: EVQLLESGGGLVQPGGSLRLSCAASGFTFSSYAMSWVRQAPGKGLEWVSAISGSGGSTYYADSVKGRFTISRDNSKNTLYLQMNSLRTDDTAVYYCARDLTTSTGWESWGQGTLVTVSA
VL: NIQMTQSPSSVSASVGDRVTITCRASQGISSWLAWYQQKPGKAPKLLIYAASSLQSGVPSRFSGSGSGTDFTLTISSLQPEDFATYYCQQANSFPPTFGQGTKLEIK
notes: Tested as a mAb; also called FAP-J40; FAP-J40-Bio (biotin-conjugated form)
OD 450 nm [1]: 0.167 OD 450 nm | OD 450 nm [2]: 0.435 OD 450 nm | OD 450 nm [3]: 0.527 OD 450 nm | Kd [4]: 1.01 nM | koff [4]: 7.31e-05 s⁻¹ | kon [4]: 72200 M⁻¹ s⁻¹ | binding result (mouse FAPα-His protein [5]): no binding (tested: 1000 ng/ml)

B4: I37 (antibody, V domains shown)
VH: QLQLVESGGGLVQPGGSLRLSCAASGFTFSSYAMSWVRQAPGKGLEWVSAISGSGGSTYYADSVKGRFTISRDNSKNTLYLQMNSLRAEDTAVYYCARDKPWGGSFDYWGQGTLVTVSA
VL: DIQLTQSPSSLSASVGDRVTITCRASQGISSWLAWYQQKPGKAPKLLIYAASSLQSGVPSRFSGSGSGTDFTLTISSLQPEDFATYYCQQANSFPVTFGPGTKVDIK
notes: Tested as a mAb; also called FAP-I37
EC50 (mouse FAPα-His protein [6]): 5.2 ng/mL | OD 450 nm [1]: 0.224 OD 450 nm | OD 450 nm [2]: 0.602 OD 450 nm | OD 450 nm [3]: 0.703 OD 450 nm | Kd [4]: 0.855 nM | koff [4]: 0.000154 s⁻¹ | kon [4]: 180000 M⁻¹ s⁻¹
